Experimental data reported in paper PMC3308961, “Chemical Mechanism of UDP-Galactopyranose Mutase from Trypanosoma cruzi: A Potential Drug Target against Chagas' Disease” (PLoS ONE, 2012).

What was measured:
[1] = target: T1, TcUGM (Trypanosoma cruzi, UniProt Q4E1W2); assay: UV-visible spectrum of purified enzyme; HPLC of released flavin; format: binding; conditions: noncovalently bound, co-purified
T1 construct: gene Tc00.1047053507993.160

[2] = test system: NC(=O)C1=CN([C@@H]2O[C@H](COP(=O)(O)OP(=O)(O)OC[C@H]3O[C@@H](n4cnc5c(N)ncnc54)[C@H](O)[C@@H]3O)[C@@H](O)[C@H]2O)C=CC1; assay: purified protein; conditions: oxidase activity (kox), air-saturated 50 mM phosphate pH 7.0, room temperature, no UDP-Galp
[3] = test system: NC(=O)C1=CN([C@@H]2O[C@H](COP(=O)(O)OP(=O)(O)OC[C@H]3O[C@@H](n4cnc5c(N)ncnc54)[C@H](OP(=O)(O)O)[C@@H]3O)[C@@H](O)[C@H]2O)C=CC1; assay: purified protein; conditions: oxidase activity (kox), air-saturated 50 mM phosphate pH 7.0, room temperature, no UDP-Galp
[4] = test system: O=c1ccn([C@@H]2O[C@H](COP(=O)(O)OP(=O)(O)O[C@H]3O[C@@H]([C@H](O)CO)[C@H](O)[C@H]3O)[C@@H](O)[C@H]2O)c(=O)[nH]1; assay: purified protein; conditions: reduced with 20 mM dithionite, 25 mM Hepes, 125 mM NaCl pH 7.5, 37°C

T1 sequence (Q4E1W2 entry or part of it): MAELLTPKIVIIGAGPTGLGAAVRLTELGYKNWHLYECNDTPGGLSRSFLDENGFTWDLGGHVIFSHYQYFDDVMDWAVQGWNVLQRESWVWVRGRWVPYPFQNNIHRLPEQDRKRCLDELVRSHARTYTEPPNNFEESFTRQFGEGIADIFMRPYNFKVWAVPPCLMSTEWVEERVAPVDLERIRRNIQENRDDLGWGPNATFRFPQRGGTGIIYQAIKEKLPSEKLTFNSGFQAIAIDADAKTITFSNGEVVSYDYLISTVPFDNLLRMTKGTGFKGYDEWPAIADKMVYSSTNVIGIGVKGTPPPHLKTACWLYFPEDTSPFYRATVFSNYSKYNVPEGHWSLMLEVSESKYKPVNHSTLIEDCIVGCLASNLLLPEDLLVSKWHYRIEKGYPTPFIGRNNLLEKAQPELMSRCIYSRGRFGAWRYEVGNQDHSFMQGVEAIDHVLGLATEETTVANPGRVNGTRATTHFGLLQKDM

| Compound | UV-visible spectrum of purified enzyme; HPLC of released flavin [1] | Km [2] | kcat [2] | Km [3] | kcat [3] | Km [4] | kcat [4] | kcat/Km [4] |
| --- | --- | --- | --- | --- | --- | --- | --- | --- |
| Cc1cc2nc3c(=O)[nH]c(=O)nc-3n(C[C@H](O)[C@H](O)[C@H](O)COP(=O)(O)OP(=O)(O)OC[C@H]3O[C@@H](n4cnc5c(N)ncnc54)[C@H](O)[C@@H]3O)c2cc1C [FAD] | Recombinant TcUGM contained noncovalently bound flavin cofactor |  |  |  |  |  |  |  |
| TcUGM (Trypanosoma cruzi strain CL Brener) |  | 90 ± 20 µM | 0.015 ± 0.002 s⁻¹ | 15 ± 2 µM | 0.030 ± 0.002 s⁻¹ | 140 ± 10 µM | 13.4 ± 0.3 s⁻¹ | 93000 ± 6000 M⁻¹ s⁻¹ |
